Measured values reported in patent US20240279290A1.
Values joined by “and” are separate entries in the source; they are usually repeats but may differ in a detail not shown here. Equal entries are not always repeated.

Target: human CD40 on primary human B cells or monocyte-derived dendritic cells (human) (UniProt P25942)
Experiment: cell-based or functional assay

Sequence of human CD40 on primary human B cells or monocyte-derived dendritic cells (human) (P25942 21-277 H80K/K81H limits assumed): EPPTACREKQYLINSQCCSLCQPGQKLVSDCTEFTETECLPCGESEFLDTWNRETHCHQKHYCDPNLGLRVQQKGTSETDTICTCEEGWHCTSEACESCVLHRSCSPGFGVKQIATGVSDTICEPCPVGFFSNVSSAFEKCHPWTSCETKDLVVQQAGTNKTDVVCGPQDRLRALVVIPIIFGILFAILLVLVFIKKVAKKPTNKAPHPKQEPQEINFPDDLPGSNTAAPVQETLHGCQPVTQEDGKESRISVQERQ

EC50 [nM], % CD86, human B cells + FAP-CHO, w HSA: 0.88 nM and 0.3 nM
EC50 [nM], % CD86, human B cells + FAP-CHO, w/o HSA: 1.9 nM and 0.51 nM
EC50 [nM], MFI CD86, human B cells + FAP-CHO, w HSA: 0.51 nM and 2.05 nM
EC50 [nM], MFI CD86, human B cells + FAP-CHO, w/o HSA: 1.13 nM and 4.73 nM
Efficacy [MFI at highest dose], MFI CD86, human B cells + FAP-CHO, w HSA: 1530 MFI and 1870 MFI
Efficacy [MFI at highest dose], MFI CD86, human B cells + FAP-CHO, w/o HSA: 1340 MFI and 2060 MFI
Efficacy [MFI at highest dose], MFI CD86, human B cells + WT-CHO (no FAP), w HSA: 1900 MFI and 1470 MFI
Efficacy [MFI at highest dose], MFI CD86, human B cells + WT-CHO (no FAP), w/o HSA: 2050 MFI and 1390 MFI
Substance: anti-CD40 monoclonal antibody corresponding to sequence 21.4.1 of U.S. Pat. No. 7,338,660 B2
